Changes are numbered by the printed parent chain.

The chains are these.
B1: NRC3_random_hg19_263_o1 (dsDNA)
DNA 1: GCGCTGGGTAGATCTGCCACTGAAGCCTACATGGAGGCGATTGACAGCGTAGAATGAAGG
DNA 2: CCTTCATTCTACGCTGTCAATCGCCTCCATGTAGGCTTCAGTGGCAGATCTACCCAGCGC
B2: NRC3_wobSeed109_DR4_A19G_o1 (dsDNA)
DNA 1: GCCGTCCAAGGTCATAGGGGGTCAGTGAAGACAGATGCGATTGACAGCGTAGAATGAAGG
DNA 2: CCTTCATTCTACGCTGTCAATCGCATCTGTCTTCACTGACCCCCTATGACCTTGGACGGC
B3: NRC3_random_hg19_332_o1 (dsDNA)
DNA 1: GCTTGTCCTCAGCCTCCTGAGCAGCTGGGACTATAGGCGATTGACAGCGTAGAATGAAGG
DNA 2: CCTTCATTCTACGCTGTCAATCGCCTATAGTCCCAGCTGCTCAGGAGGCTGAGGACAAGC
B4: NRC3_random_hg19_83_o1 (dsDNA)
DNA 1: GCGCTGTACATGATGTGGCCTCCCAGCCCAGGATCTGCGATTGACAGCGTAGAATGAAGG
DNA 2: CCTTCATTCTACGCTGTCAATCGCAGATCCTGGGCTGGGAGGCCACATCATGTACAGCGC
B5: NRC3_wobSeed117_DR4_A18G_o1 (dsDNA)
DNA 1: GCCGTCAAAGTTCAACTGAGGTAACGTAAAGCACGCGCGATTGACAGCGTAGAATGAAGG
DNA 2: CCTTCATTCTACGCTGTCAATCGCGCGTGCTTTACGTTACCTCAGTTGAACTTTGACGGC
B6: NRC3_wobSeed93_DR3_G25A_o1 (dsDNA)
DNA 1: GCAGTCAAAGTTCATCTAGGTAACATAAGATATGCTGCGATTGACAGCGTAGAATGAAGG
DNA 2: CCTTCATTCTACGCTGTCAATCGCAGCATATCTTATGTTACCTAGATGAACTTTGACTGC
B7: NRC3_wobSeed64_DR2_G5C_o1 (dsDNA)
DNA 1: GCTACCCTAGGTCATTGGGCCAGTATAGTACGCATCGCGATTGACAGCGTAGAATGAAGG
DNA 2: CCTTCATTCTACGCTGTCAATCGCGATGCGTACTATACTGGCCCAATGACCTAGGGTAGC
B8: NRC3_wobSeed104_DR4_A11G_o1 (dsDNA)
DNA 1: GCTCTTGTAGGTCAATAGAGGTTAAGAAAGTGCGCTGCGATTGACAGCGTAGAATGAAGG
DNA 2: CCTTCATTCTACGCTGTCAATCGCAGCGCACTTTCTTAACCTCTATTGACCTACAAGAGC
B9: NRC3_wobSeed73_DR3_A5C_o1 (dsDNA)
DNA 1: GCCACACTAGGTCACAGAGGTCAAAGTCCGTGCGTAGCGATTGACAGCGTAGAATGAAGG
DNA 2: CCTTCATTCTACGCTGTCAATCGCTACGCACGGACTTTGACCTCTGTGACCTAGTGTGGC
B10: NRC3_wobSeed113_DR4_G19A_o1 (dsDNA)
DNA 1: GCATATGTAGGTTAGCTGAGGTCATTCAGACTAGGCGCGATTGACAGCGTAGAATGAAGG
DNA 2: CCTTCATTCTACGCTGTCAATCGCGCCTAGTCTGAATGACCTCAGCTAACCTACATATGC
B11: NRC3_wobSeed100_DR4_G16T_o1 (dsDNA)
DNA 1: GCCCTACTGGGCCACTAAAGGTCATTGATTCAGTGAGCGATTGACAGCGTAGAATGAAGG
DNA 2: CCTTCATTCTACGCTGTCAATCGCTCACTGAATCAATGACCTTTAGTGGCCCAGTAGGGC
B12: NRC3_wobSeed100_DR4_T8G_o1 (dsDNA)
DNA 1: B11 DNA 1 with T8G, T16G
DNA 2: B11 DNA 2 with A45C, A53C
B13: NRC3_wobSeed136_DR5_G5C_o1 (dsDNA)
DNA 1: GCTACCCTAGGTCATTCAGGGGCCAGTATAGAAAGCGCGATTGACAGCGTAGAATGAAGG
DNA 2: CCTTCATTCTACGCTGTCAATCGCGCTTTCTATACTGGCCCCTGAATGACCTAGGGTAGC
B14: NRC3_wobSeed105_DR4_A13T_o1 (dsDNA)
DNA 1: GCATCTCTAGGTTAAGATAGTTCAGTGAATGCAAATGCGATTGACAGCGTAGAATGAAGG
DNA 2: CCTTCATTCTACGCTGTCAATCGCATTTGCATTCACTGAACTATCTTAACCTAGAGATGC
B15: NRC3_wobSeed97_DR4_G16A_o1 (dsDNA)
DNA 1: GCCAAACTAGGTCACAAAAGGTCAAAGTCGAATGACGCGATTGACAGCGTAGAATGAAGG
DNA 2: CCTTCATTCTACGCTGTCAATCGCGTCATTCGACTTTGACCTTTTGTGACCTAGTTTGGC
B16: NRC3_wobSeed49_DR2_G11T_o1 (dsDNA)
DNA 1: GCCAAACTAGTTCAAGAGGTCAAAGTCCGCTTCCCGGCGATTGACAGCGTAGAATGAAGG
DNA 2: CCTTCATTCTACGCTGTCAATCGCCGGGAAGCGGACTTTGACCTCTTGAACTAGTTTGGC
B17: NRC3_wobSeed42_DR1_G9A_o1 (dsDNA)
DNA 1: GCTATACAAGGTCAAAGGCCAGAGTACGAATGTCGAGCGATTGACAGCGTAGAATGAAGG
DNA 2: CCTTCATTCTACGCTGTCAATCGCTCGACATTCGTACTCTGGCCTTTGACCTTGTATAGC
B18: NRC3_wobSeed114_DR4_G9A_o1 (dsDNA)
DNA 1: GCAATACAAGGTCATCGTAGGCCAGAGTACGCACAGGCGATTGACAGCGTAGAATGAAGG
DNA 2: CCTTCATTCTACGCTGTCAATCGCCTGTGCGTACTCTGGCCTACGATGACCTTGTATTGC
B19: NRC3_wobSeed45_DR1_G4A_o1 (dsDNA)
DNA 1: GCTATCAAAGTTCAAAGGTAACGTAAGTATCCACACGCGATTGACAGCGTAGAATGAAGG
DNA 2: CCTTCATTCTACGCTGTCAATCGCGTGTGGATACTTACGTTACCTTTGAACTTTGATAGC
B20: NRC3_wobSeed116_DR4_C16T_o1 (dsDNA)
DNA 1: GCAGAATGAGGTTACTAAAGATCAGGGAAACGCTTGGCGATTGACAGCGTAGAATGAAGG
DNA 2: CCTTCATTCTACGCTGTCAATCGCCAAGCGTTTCCCTGATCTTTAGTAACCTCATTCTGC
B21: NRC3_wobSeed116_DR4_A9G_o1 (dsDNA)
DNA 1: B20 DNA 1 with A9G, T16C
DNA 2: B20 DNA 2 with A45G, T52C
B22: NRC3_wobSeed101_DR4_G27T_o1 (dsDNA)
DNA 1: GCCCTTACGGGTCACTCCAGGTTATATCATCGGAGTGCGATTGACAGCGTAGAATGAAGG
DNA 2: CCTTCATTCTACGCTGTCAATCGCACTCCGATGATATAACCTGGAGTGACCCGTAAGGGC

Chain of VDR:RXRa (P11473 whole entry, chain 1 of 2): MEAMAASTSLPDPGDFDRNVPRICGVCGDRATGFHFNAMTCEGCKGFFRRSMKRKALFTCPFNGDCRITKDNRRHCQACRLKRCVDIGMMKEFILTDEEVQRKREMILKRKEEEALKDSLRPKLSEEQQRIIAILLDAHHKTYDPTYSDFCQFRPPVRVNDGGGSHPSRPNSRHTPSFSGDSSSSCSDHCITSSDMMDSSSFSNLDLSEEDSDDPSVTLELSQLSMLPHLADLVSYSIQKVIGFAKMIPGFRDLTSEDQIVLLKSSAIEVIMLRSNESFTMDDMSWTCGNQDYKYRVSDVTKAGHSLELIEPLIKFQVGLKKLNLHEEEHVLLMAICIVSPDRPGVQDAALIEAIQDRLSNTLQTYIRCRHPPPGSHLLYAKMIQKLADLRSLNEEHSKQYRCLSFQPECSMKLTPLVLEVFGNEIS
Chain of VDR:RXRa (P19793 whole entry, chain 2 of 2): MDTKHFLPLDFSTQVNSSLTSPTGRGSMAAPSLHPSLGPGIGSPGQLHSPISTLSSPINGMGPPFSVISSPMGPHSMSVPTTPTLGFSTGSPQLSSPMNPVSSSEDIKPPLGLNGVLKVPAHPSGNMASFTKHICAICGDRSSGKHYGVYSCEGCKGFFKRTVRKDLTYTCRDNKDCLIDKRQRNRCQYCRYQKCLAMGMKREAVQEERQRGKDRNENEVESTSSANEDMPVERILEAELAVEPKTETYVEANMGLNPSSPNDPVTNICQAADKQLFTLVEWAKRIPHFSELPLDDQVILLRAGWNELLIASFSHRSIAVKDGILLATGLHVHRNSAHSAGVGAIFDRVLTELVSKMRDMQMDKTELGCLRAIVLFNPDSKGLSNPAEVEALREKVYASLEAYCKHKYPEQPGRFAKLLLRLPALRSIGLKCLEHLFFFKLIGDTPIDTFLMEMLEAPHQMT
Chain of LXRa:RXRa (Q13133 whole entry, chain 1 of 2): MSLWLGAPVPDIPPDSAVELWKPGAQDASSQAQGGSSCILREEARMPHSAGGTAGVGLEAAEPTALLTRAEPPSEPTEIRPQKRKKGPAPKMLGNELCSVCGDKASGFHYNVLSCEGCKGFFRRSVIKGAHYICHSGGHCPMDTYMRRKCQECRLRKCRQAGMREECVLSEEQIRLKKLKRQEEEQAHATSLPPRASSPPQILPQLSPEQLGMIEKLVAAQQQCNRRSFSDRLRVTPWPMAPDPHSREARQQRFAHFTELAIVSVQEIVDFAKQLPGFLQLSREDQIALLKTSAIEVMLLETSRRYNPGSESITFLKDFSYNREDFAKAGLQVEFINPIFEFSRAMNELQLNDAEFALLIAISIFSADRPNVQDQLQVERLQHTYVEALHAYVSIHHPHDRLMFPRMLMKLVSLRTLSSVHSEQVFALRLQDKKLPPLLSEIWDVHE
Chain of LXRa:RXRa (P19793 whole entry, chain 2 of 2): as the sequence (P19793 whole entry, chain 2 of 2) above
Chain of LXRb:RXRa (P55055 whole entry, chain 1 of 2): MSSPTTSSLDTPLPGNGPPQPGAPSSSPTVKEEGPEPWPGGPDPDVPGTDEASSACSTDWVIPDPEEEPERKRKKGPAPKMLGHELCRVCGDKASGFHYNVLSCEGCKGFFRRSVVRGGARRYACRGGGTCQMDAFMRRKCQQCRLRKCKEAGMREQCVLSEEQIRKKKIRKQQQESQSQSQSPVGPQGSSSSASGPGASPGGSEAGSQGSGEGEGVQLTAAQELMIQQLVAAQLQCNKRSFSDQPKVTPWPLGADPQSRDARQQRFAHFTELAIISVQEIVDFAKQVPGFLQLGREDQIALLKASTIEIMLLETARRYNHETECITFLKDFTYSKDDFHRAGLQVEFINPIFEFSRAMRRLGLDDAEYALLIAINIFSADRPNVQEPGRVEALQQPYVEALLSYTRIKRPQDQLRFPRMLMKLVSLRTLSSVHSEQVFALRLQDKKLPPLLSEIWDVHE
Chain of LXRb:RXRa (P19793 whole entry, chain 2 of 2): as the sequence (P19793 whole entry, chain 2 of 2) above
Chain of FXR:RXRa (Q96RI1 whole entry, chain 1 of 2): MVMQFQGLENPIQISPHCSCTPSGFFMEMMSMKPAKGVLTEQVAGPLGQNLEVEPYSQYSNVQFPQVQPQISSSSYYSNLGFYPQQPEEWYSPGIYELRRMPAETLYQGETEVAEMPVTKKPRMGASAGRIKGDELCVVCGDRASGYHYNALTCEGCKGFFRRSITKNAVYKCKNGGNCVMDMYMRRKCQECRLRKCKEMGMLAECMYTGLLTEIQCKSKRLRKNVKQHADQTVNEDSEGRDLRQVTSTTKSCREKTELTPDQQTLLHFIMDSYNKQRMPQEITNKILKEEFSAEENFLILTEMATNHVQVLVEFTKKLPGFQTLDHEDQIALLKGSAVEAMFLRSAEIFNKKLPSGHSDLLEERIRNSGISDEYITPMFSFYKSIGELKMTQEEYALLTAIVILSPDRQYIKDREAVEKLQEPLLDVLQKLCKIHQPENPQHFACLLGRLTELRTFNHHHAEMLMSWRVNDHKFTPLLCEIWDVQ
Chain of FXR:RXRa (P19793 whole entry, chain 2 of 2): as the sequence (P19793 whole entry, chain 2 of 2) above
Chain of PPARa:RXRa (Q07869 whole entry, chain 1 of 2): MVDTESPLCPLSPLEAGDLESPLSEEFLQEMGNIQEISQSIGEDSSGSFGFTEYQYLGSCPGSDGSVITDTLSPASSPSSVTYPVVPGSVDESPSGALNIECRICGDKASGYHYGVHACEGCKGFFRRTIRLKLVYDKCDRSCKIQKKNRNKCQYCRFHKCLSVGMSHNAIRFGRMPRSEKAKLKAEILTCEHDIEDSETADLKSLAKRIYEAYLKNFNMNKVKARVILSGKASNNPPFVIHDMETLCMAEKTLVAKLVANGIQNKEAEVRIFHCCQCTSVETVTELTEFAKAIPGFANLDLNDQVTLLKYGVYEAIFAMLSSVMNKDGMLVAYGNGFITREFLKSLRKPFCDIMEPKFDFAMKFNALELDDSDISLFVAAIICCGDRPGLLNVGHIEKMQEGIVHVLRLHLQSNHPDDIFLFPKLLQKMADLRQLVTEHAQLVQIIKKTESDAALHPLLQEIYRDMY
Chain of PPARa:RXRa (P19793 whole entry, chain 2 of 2): as the sequence (P19793 whole entry, chain 2 of 2) above

One series addresses LXRb:RXRa (Homo sapiens, UniProt P55055;P19793 full;full). Nature of the series: no ligand; PBM; 270 nM : 90 nM RXRa; PBS pH 7.4, 2% milk, 0.02% Triton X-100, 1 mM DTT, BSA, 0.4 mg/ml salmon testes DNA. Conditions: tags: His kept;His cleaved; copies: 1;1; label: surface-attached array probe. The method in brief:
(§1)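 Ligand-free nuclear receptor dimers were applied to custom Agilent 4×180K protein-binding microarrays whose double-stranded probes carried direct-repeat seeds, single-nucleotide variants, half-site ablations and random human genomic background sequences in 34-nt variable regions. Incubation lasted 1 h. Binding z-scores were computed against the random background probes from regression-normalized fluorescence.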
B1: the binding signal was -1.05 PBM z-score against 500 random probes.
The same measure, in the same setting: the result for B2 reads 7.12 PBM z-score against 500 random probes.
For B3, the binding signal is -1.23 PBM z-score against 500 random probes.
Still for that read-out and setting: next, B4: -0.83 PBM z-score against 500 random probes.

The target in another series is FXR:RXRa (Homo sapiens, UniProt Q96RI1;P19793 full;full). Described as above. Particulars: tags: His kept;His cleaved; copies: 1;1; label: surface-attached array probe. The method in brief:
as §1
For B2, the binding signal was 8.21 PBM z-score against 500 random probes.
On the same count and under the same terms, next, B3: -0.13 PBM z-score against 500 random probes.

A further series has as its target VDR:RXRa (Homo sapiens, UniProt P11473;P19793 full;full). The description is as above. Particulars: tags: His kept;His cleaved; copies: 1;1; label: surface-attached array probe. The method, boiled down:
as §1
B1: the binding signal was -0.87 PBM z-score against 500 random probes.
As for B2, the binding signal is 7.46 PBM z-score against 500 random probes.
The same measure, in the same setting: the result for B3 reads -1.03 PBM z-score against 500 random probes; that for B4, -0.48 PBM z-score against 500 random probes.

The target of another series is RARg:RXRa (Homo sapiens, UniProt P13631;P19793 full;full). Described as above. Conditions: tags: His kept;His cleaved; copies: 1;1; label: surface-attached array probe. The method, boiled down: as §1
Chain of RARg:RXRa (P13631 whole entry, chain 1 of 2): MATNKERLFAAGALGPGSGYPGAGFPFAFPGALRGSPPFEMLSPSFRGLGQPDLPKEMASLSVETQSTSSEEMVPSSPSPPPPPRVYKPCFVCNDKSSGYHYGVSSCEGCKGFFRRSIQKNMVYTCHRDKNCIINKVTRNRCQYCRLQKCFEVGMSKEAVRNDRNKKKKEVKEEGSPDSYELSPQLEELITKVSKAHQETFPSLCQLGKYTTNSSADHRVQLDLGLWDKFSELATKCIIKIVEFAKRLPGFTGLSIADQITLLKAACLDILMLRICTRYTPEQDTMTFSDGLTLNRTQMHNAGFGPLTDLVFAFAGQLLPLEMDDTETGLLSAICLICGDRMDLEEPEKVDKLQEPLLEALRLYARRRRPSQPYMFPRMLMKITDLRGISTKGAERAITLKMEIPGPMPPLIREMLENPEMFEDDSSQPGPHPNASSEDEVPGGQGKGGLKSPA
Chain of RARg:RXRa (P19793 whole entry, chain 2 of 2): as the sequence (P19793 whole entry, chain 2 of 2) above
Consider B2, for which the binding signal was 7.6 PBM z-score against 500 random probes.

Another series has as its target PPARa:RXRa (Homo sapiens, UniProt Q07869;P19793 full;full). Described as above. Particulars: tags: GST kept;His cleaved; copies: 1;1; label: surface-attached array probe. The method, boiled down:
as §1
In the case of B4, the binding signal is -0.53 PBM z-score against 500 random probes.

Another series concerns the target LXRa:RXRa (Homo sapiens, UniProt Q13133;P19793 full;full). Described as above. Particulars: tags: His kept;His cleaved; copies: 1;1; label: surface-attached array probe. The method, boiled down:
as §1
As for B5, the binding signal was 6.87 PBM z-score against 500 random probes.
As for B6, the binding signal was 6.61 PBM z-score against 500 random probes.
Regarding B7, the binding signal was 6.89 PBM z-score against 500 random probes.
As to B8, the binding signal is 7.01 PBM z-score against 500 random probes.
Consider B9, for which the binding signal is 7.06 PBM z-score against 500 random probes.
As for B10, the binding signal was 6.64 PBM z-score against 500 random probes.
Same read-out and setting: next, B11: 7.03 PBM z-score against 500 random probes.
The same measure, in the same setting: the result for B12 reads 6.67 PBM z-score against 500 random probes.
On the same count and under the same terms, next, B13: 6.72 PBM z-score against 500 random probes; B14: 6.81 PBM z-score against 500 random probes; B15: 8.65 PBM z-score against 500 random probes.
Consider B16, for which the binding signal was 6.74 PBM z-score against 500 random probes.
The same measure, in the same setting: next, B17: 7.02 PBM z-score against 500 random probes.
Consider B18, for which the binding signal was 7.16 PBM z-score against 500 random probes.
On the same count and under the same terms, the result for B19 reads 7.29 PBM z-score against 500 random probes.
Take B20: the binding signal is 8.1 PBM z-score against 500 random probes.
For the molecule B21, the binding signal is 7.02 PBM z-score against 500 random probes.
For B22, the binding signal is 8.05 PBM z-score against 500 random probes.

Source of the values: PMC6555819, “Comprehensive study of nuclear receptor DNA binding provides a revised framework for understanding receptor specificity”.
